Test results taken from patent US12227570B2, “Anti-CEACAM6 antibodies and methods of use” (Singapore Health Services PTE LTD, priority 2016, dated 2025).

Tests used:
cancer cell lines = experiment: IHC staining on FFPE cell line array; assay type: cell-based; settings: gastric, lung, colorectal and pancreatic cancer cell lines
Experimental: (§1) TMA slides containing FFPE tissues were first heated in an oven at 60° C. for 30 min to remove any solvents. The slides were then dewaxed and re-hydrated through sequential immersion in Histoclear (2×), 100% ethanol (2×), 95% ethanol, 70% ethanol, and finally in DI water.
(§2) Heat-induced epitope retrieval was done in a solution containing 10 mM Tris Base, 1 mM EDTA, 0.05% Tween 20 at pH 9.0, and heated at 95° C. for 20 min. The container with the antigen retrieval solution and slides was then removed and allowed to cool to room temperature for an additional 20 min. The slides were then washed in DI water. Endogenous peroxidase activity was then blocked by incubation of the slides with 3% H2O2 in PBS for 30 min at room temperature. The slides were washed in DI water, followed by a blocking step with 10% normal goat serum in PBS for 30 min.
The slides were then incubated with GR6A04 at 5 μg/mL in blocking solution overnight at 4° C. The slides were then washed an incubated with a polymer-based anti-mouse secondary antibody conjugated with HRP (DAKO, USA) for 30 min at room temperature, and developed with the recommended DAB chromogen substrate solution for 2 min, and counterstained with Gill's Hematoxylin solution. […]

[1] = tested on: PC-9 Gefitinib resistant clones (CL75, CL86, CL131) and parental PC-9; experiment: Flow cytometry binding on PC-9 and gefitinib resistant PC-9 clones; assay type: cell-based
Experimental: (§3) Cells were harvested as single cell suspensions using trypsin. 1E5 cells were used per sample, and incubated with 100 μl of mAb culture supernatant for 30 min. Cells were then washed with 1% bovine serum albumin in PBS, and further incubated with 100 μl of goat anti-mouse antibody fluorescein isothiocyanate (FITC)-conjugated (1:500, DAKO, Denmark) for 15 min at 4° C. in the dark. Cells were again washed and resuspended in 200 μL of 1% BSA/PBS for analysis on Guava® easy Cyte 8HT Benchtop Flow Cytometer (Merck Millipore, USA). For interrogation of […] binding, cells were fixed with 4% PFA/PBS (Affymetrix, USA) at room temperature for 10 min, washed in PBS, and permeabilised with 0.1% triton/PBS for 5 min at room temperature, before proceeding with incubation with mAb supernatant/primary antibody. For staining with propidium iodide, PI was added to a final concentration of 5 μg/mL for 5 min just prior to analysis by the flow cytometer.

PC-9 = experiment: Mab-ZAP indirect saporin conjugate cell growth inhibition; assay type: cell-based; settings: GR6A04 indirectly conjugated with saporin via anti-mouse antibody; PC-9 sensitive parental line
Experimental: (§4) Cells were seeded into a black coated 96 well plate (Grenier Bio-one, UK) at a range of density from 1000-5000 cells per well (depending on the cell type used) and 90 μL per well. The plate was then incubated for 24 hours at 37° C. in humidified air with 5% CO2. After 24 hours, 10 μL of mAb or buffer was added to each well and the plate was again placed at 37° C. in humidified air with 5% CO2. 4 days after addition of mAb or buffer, 100 μL of CTG substrate (Promega, Wisconsin, USA) was added to each well. The plate was then left in the dark for 10 minutes, with vigorous shaking. The cell viability of the samples was then quantified using Tecan I-control (Tecan, Switzerland).

CL75 GR clone = experiment: as above; assay type: cell-based; settings: GR6A04 indirectly conjugated with saporin via anti-mouse antibody
Experimental: as §4

NSCLC tissue = experiment: IHC staining on NSCLC tissue microarray with adjacent normal (LC 1001 2a)
Experimental: as §1, §2
The slides were then incubated with GR6A04 at 5 μg/mL in blocking solution overnight at 4° C. The slides were then washed an incubated with a polymer-based anti-mouse secondary antibody conjugated with HRP (DAKO, USA) for 30 min at room temperature, and developed with the recommended DAB chromogen substrate solution for 2 min, and counterstained with Gill's Hematoxylin solution.
The stained slides were subsequently dehydrated through immersion in 50% ethanol, 70% ethanol, 90% ethanol, 100% ethanol (2×) and Histoclear (2×), before mounting with a glass cover slip. The slides were then imaged with the Zeiss AxioScan Digital Slide Scanner.

A549−GR6A04+ cells = experiment: Subcutaneous xenograft model; assay type: in vivo, NCr Nude mice; settings: 10 mg/kg, 3 doses on D0, D4 and D8, start at tumour size >150 mm3
Experimental: Xenograft models were established using A549−GR6A04+ cells in NCr Nude mice. 5E6 cells in DMEM basal media were mixed at a 1:1 ratio with Matrigel, and injected subcutaneously at a volume of 200 μl. Tumours were allowed to form and reach a size of >150 mm^3, before they were randomised into 5 groups of 5 mice each. The groups were treated with mAbs as follows: (1) Buffer control; (2) GR6A04-MMAE; (3) Hu-GR6A04; (4) GR6A04; (5) MG1.45-MMAE isotype control. mAbs were injected via tail vein injection at a total volume of 100 μl. Each dose, were applicable, is at 200 μg (equivalent to 10 mg/kg), and treatment was done every 4 days, for a total of 3 doses (Day 0, 4 and 8). Tumour size was monitored over 50 days.

[2] = tested on: NSCLC lines, GR HCC827 clones, breast cancer lines, colorectal cancer lines; experiment: Flow cytometry binding on other cancer cell lines; assay type: cell-based
Experimental: as §3

[3] = tested on: PC-9 Gefitinib resistant clones; experiment: Propidium iodide staining (FL-3) for cytotoxicity of mAb alone; assay type: cell-based; settings: cells incubated with the mAb alone
Experimental: as §3

B1: GR6A04: mouse IgG1, κ anti-CEACAM6 monoclonal antibody, VH SEQ ID NO:1, VL SEQ ID NO:2, binds N-glycosylated CEACAM6 (antibody, V domains shown)
VH: SGPELVKPGASVKMSCKASGNTFTSYVMHWVKQKPGQGLEWIGYINPYNDGTKYNEKFKGKATLTSDKSSSTAYMELSSLTSEDSAVYYCARSTARATPYFYAMDYWGQGTSVTVSS
VL: DILMTQSPSSLAVTAGEKVTMRCKSSQSLLWSVNQNSYLSWYQLKQGQPPKLLLYGASIRESWVPDRFTGSGSGTDFTLTISNVHVEDLAVYYCQHNHGSFLPYTFGGGTKLEIK
modifications: Isolated antibody fragment
Cancer cell lines
  IHC reactivity on FFPE cell line array: reactive
[1]; Gefitinib sensitive parental PC-9 and another GR PC-9 clone not used in immunisation
  binding: similarly high binding
[1]; three PC-9 Gefitinib resistant clones used for immunisation, FL-1 gated at 2% on secondary-only control
  percentage positive-binding (reactivity): > 50%
PC-9
  cell growth inhibited: 43%
CL75 GR clone
  cell growth inhibited: 28%
NSCLC tissue; LC 1001 2a
  positive staining adenocarcinoma (cores positive/total): 9/18
  positive staining squamous (cores positive/total): 4/27
  staining of paired adjacent normal tissue: did not have any positive staining
NSCLC tissue; LC 1001 2a, listed as GR 6A04
  staining of paired adjacent normal tissue: negative staining
NSCLC tissue; focused NSCLC TMA
  positive stained lung adenocarcinoma cores: 50%
  positive stained squamous cell cancer cores: 15%
A549−GR6A04+ cells
  tumour growth versus buffer control: slower growth compared to the buffer control
A549−GR6A04+ cells; listed as Gr6A04
  tumour growth versus buffer control: repression of tumour growth
[2]
  GR HCC827 clones with binding: 2 of 6
  breast cancer lines with reactivity: 3 of 13
  colorectal cancer lines with reactivity: 1 of 2
[2]; A549 and Calu-3 positive
  NSCLC lines with partial binding: 2 of 4
[3]
  cell cytotoxicity (propidium iodide staining, FL-3): no apparent cell cytotoxicity
[3]; listed as GR 6A04
  cell cytotoxicity (propidium iodide staining, FL-3): no inherent cytotoxity
